This is an account of results in article PMC2678197 (2009).

What all share (assay): NMR
One assay has as its target T1, CCR3 peptide Su16 8-23 (Homo sapiens, UniProt P51677).
T1 chain: VETFGTTS[sY]YDDVGLL

The next assay has as its target T2, CCR3 peptide Su0 8-23 (Homo sapiens, UniProt P51677).
T2 chain: VETFGTTSYYDDVGLL

A further assay has as its target T3, CCR3 peptide Su17 8-23 (Homo sapiens, UniProt P51677).
T3 chain: VETFGTTSY[sY]DDVGLL

Where no end group is shown, it is not given here. [ ]: non-standard residue; d: D form. sY = N[C@@H](Cc1ccc(OS(=O)(=O)O)cc1)C(=O)O

As usually defined, the Kd is the concentration at which binding is half-saturated. Read a low Kd as tighter binding.

B1: eotaxin (protein)
chain: not shown
As for B1, the Kd is less than 5 µM with CCR3 peptide Su16 8-23, 140 µM with CCR3 peptide Su0 8-23 and 22 µM in the assay with CCR3 peptide Su17 8-23.
